US20160368961A1 (GLYTECH, published 2016)
Blank lines part the entries; values can stand above or below the molecule they belong to. Positions of bridges follow the written chain, without caps; N, C: chain ends. Primed or numbered codes have the meaning given here. No end group written: not given here. *: point of attachment. dimannose = dimannose sugar chain attached to the residue; GlcNAc(3) = GlcNAc attached to the Cys side chain; Biotin = O=C1N[C@H]2[C@H](CS[C@H]2CCCCC(=O)*)N1; disialo = disialo sugar chain; GlcNAc = N-acetylglucosamine

Experiments:
[1] = target: somatostatin receptors SSTR1-SSTR5 (receptor not singled out in the sentence); assay: competitive radioligand binding
[2] = target: Somatostatin receptor SSTR2 (UniProt P30874 1-369, limits assumed); assay: cell-based or functional assay
[3] = target: Somatostatin receptor SSTR1 (human recombinant, CHO-K1 cells) (human, UniProt P30872 1-391); assay: competitive radioligand binding
[4] = target: somatostatin receptor SSTR4 (Human, UniProt P31391 1-388); assay: cell-based or functional assay
[5] = target: T1, somatostatin receptor SSTR2 (Human, UniProt P30874 1-369); assay: cell-based or functional assay
[6] = target: somatostatin receptor SSTR1 (human) (UniProt P30872); assay: competitive radioligand binding
[7] = target: somatostatin receptor SSTR2 (human) (UniProt P30874); assay: competitive radioligand binding
[8] = target: somatostatin receptor SSTR1 (Human, UniProt P30872 1-391); assay: competitive radioligand binding
[9] = target: somatostatin receptor SSTR3 (Human, UniProt P32745 1-418); assay: competitive radioligand binding
[10] = target: T1, somatostatin receptor SSTR2; assay: competitive radioligand binding
[11] = target: Somatostatin receptor SSTR3 (human recombinant, CHO-K1 cells) (human, UniProt P32745 1-418); assay: competitive radioligand binding
[12] = target: Somatostatin receptor SSTR5 (UniProt P35346 1-364, limits assumed); assay: cell-based or functional assay
[13] = target: Somatostatin receptor SSTR4 (UniProt P31391 1-388, limits assumed); assay: cell-based or functional assay
Somatostatin receptor SSTR4, sequence (P31391 whole entry): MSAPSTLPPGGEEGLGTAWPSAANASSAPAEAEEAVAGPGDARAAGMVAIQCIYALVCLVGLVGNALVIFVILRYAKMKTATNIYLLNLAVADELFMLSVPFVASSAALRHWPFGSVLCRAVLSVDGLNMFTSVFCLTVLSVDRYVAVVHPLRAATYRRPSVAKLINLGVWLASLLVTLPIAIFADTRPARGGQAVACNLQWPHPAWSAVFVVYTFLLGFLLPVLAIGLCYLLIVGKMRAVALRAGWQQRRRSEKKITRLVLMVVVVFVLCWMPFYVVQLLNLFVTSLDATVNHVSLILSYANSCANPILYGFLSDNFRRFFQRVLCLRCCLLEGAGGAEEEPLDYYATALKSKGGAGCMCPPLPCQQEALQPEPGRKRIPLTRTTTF

T1 sequence (P30874 whole entry): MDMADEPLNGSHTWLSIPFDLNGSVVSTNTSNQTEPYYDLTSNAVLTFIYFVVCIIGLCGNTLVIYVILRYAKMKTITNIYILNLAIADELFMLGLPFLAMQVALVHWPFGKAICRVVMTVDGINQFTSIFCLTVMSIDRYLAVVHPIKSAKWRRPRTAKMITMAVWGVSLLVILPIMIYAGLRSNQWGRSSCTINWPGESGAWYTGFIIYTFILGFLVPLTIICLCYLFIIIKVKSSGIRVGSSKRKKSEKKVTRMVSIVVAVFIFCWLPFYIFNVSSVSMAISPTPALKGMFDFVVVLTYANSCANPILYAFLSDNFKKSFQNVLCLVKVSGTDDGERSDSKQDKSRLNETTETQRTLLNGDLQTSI
somatostatin receptor SSTR3, sequence (P32745 whole entry): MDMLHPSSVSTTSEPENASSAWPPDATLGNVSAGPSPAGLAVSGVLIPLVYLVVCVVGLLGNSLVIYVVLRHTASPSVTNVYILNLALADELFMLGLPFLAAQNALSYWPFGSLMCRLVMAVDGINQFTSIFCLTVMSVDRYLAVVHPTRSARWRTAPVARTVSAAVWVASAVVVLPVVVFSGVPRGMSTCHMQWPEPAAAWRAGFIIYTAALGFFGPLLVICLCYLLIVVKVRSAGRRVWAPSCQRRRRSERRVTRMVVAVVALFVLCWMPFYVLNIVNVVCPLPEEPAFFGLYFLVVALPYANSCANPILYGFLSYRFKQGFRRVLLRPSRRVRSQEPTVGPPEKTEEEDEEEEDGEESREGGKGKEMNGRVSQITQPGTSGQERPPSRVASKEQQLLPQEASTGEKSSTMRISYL
Somatostatin receptor SSTR2, sequence (P30874 whole entry): as the sequence (P30874 whole entry) above
somatostatin receptor SSTR4, sequence (P31391 whole entry): as the sequence (P31391 whole entry) above
Somatostatin receptor SSTR3 (human recombinant, CHO-K1 cells), sequence (P32745 whole entry): as the sequence (P32745 whole entry) above
somatostatin receptor SSTR1 (human), sequence (P30872 whole entry): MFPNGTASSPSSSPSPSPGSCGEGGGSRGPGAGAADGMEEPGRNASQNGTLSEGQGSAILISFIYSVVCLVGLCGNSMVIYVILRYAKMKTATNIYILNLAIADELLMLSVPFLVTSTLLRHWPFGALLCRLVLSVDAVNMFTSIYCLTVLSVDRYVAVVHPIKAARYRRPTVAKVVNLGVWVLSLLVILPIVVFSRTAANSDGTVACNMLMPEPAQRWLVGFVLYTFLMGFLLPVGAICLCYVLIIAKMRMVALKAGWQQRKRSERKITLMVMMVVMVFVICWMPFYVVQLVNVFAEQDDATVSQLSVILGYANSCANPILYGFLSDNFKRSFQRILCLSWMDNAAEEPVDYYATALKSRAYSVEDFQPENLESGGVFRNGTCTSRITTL
Somatostatin receptor SSTR1 (human recombinant, CHO-K1 cells), sequence (P30872 whole entry): as above
somatostatin receptor SSTR1, sequence (P30872 whole entry): as above
Somatostatin receptor SSTR5, sequence (P35346 whole entry): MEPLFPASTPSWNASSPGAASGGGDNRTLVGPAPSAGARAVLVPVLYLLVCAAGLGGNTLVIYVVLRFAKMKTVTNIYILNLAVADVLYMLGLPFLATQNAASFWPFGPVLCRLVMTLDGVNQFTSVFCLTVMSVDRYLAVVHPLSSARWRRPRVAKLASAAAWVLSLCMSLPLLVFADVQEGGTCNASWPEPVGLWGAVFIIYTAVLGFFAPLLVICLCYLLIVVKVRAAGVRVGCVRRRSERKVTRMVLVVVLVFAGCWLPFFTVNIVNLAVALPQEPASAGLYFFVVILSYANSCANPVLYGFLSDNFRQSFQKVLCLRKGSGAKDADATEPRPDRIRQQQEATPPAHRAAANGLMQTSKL
somatostatin receptor SSTR2 (human), sequence (P30874 whole entry): as the sequence (P30874 whole entry) above

- ratio of Ki to the Ki of unglycosylated SRIF14 [1]: 15.7 ratio (:1)
Molecule: S1C(disialo).N5C(disialo)-SRIF28 (peptide)

- IC50 of cAMP production suppressing action (agonist activity) [2]: 80 pM
Molecule: C(disialo sugar chain)ANSNPAMAPRERKAGCKC(GlcNAc)FFWKTFTSC (disulfide 17-28) [S1C(disialo).N19C(GlcNAc)-SRIF28]

- IC50 [3]: 30000 pM
Molecule: SANSC(disialo)PAMC(disialo)PRERKAGCKNFFWKTFTSC (disulfide 17-28) [N5C(disialo).A9C(disialo)-SRIF28]

- IC50 of cAMP production suppressing action (agonist activity) [4]: 65 pM
- IC50 of cAMP production suppressing action (agonist activity) [5]: 75 pM
Molecule: C(disialo sugar chain)ANSNPAMAPRERKAGCKNFFWKTFTSC (disulfide 17-28) [S1C(disialo)-SRIF28]

- Ki as fold of that of SRIF14 [6]: 310 to 5300 fold
- Ki as fold of that of SRIF14 [7]: 310 to 5300 fold
- Ki [8]: > 828000 pM
- Ki [9]: > 342000 pM
- Ki [10]: > 531000 pM
Molecule: SANSNPAMAPRERKAGCKNFFWKTC(disialo)TSC (disulfide 17-28) [F25C(disialo)-SRIF28]

- Ki [10]: 3000 pM
Molecule: N(disialo sugar chain)ANSNPAMAPRERKAGCKC(dimannose)FFWKTFTSC (disulfide 17-28) [S1N(disialo).N19C(diMan)-SRIF28]

- Ki [9]: 1000 pM
Molecule: Biotin-C(disialo sugar chain)ANSNPAMAPRERKAGCKNFFWKTFTSC (disulfide 17-28) [Biotin-S1C(disialo)-SRIF28]

- IC50 [11]: 7000 pM
B1: 29C(disialo)-SRIF28 (peptide)
peptide: SANSNPAMAPRERKAGCKNFFWKTFTSCC
modifications: disialo sugar chain attached Cys added after Cys28 (position 29); disulfide bond Cys17-Cys28

- IC50 of cAMP production suppressing action (agonist activity) [12]: 90 pM
Molecule: C(disialo sugar chain)ANSC(disialo sugar chain)PAMAPRERKAGCKNFFWKTFTSC (disulfide 17-28) [S1C(disialo).N5C(disialo)-SRIF28]

- IC50 of cAMP production suppressing action (agonist activity) [2]: 40 pM
Molecule: C(GlcNAc(3))ANSNPAMAPRERKAGCKNFFWKTFTSC (disulfide 17-28) [S1C(GlcNAc)-SRIF28]

- fold difference in Ki against the glycosylated forms of Examples 1 and 21 [1]: 10 fold
Molecule: C(disialo sugar chain)ANSC(disialo sugar chain)PAMC(disialo sugar chain)PRERKAGCKNFFWKTFTSC (disulfide 17-28) [S1C(disialo).N5C(disialo).A9C(disialo)-SRIF28]

- Ki [10]: 700 pM
Molecule: C(disialo sugar chain)ANSNPAMAPRERKAGCKNFFWKTFTSC-NH2 (disulfide 17-28) [S1C(disialo)-SRIF28-amide]

- IC50 of cAMP production suppressing action (agonist activity) [13]: 50 pM
Molecule: C(diGlcNAc sugar chain)ANSNPAMAPRERKAGCKNFFWKTFTSC (disulfide 17-28) [S1C(diGlcNAc)-SRIF28]
